Test results as given in patent US20220305066A1.

Target: EpCAM (epithelial cell adhesion molecule) on cells (UniProt P16422)
Assay: cell-based or functional assay

Sequence of UniProt P16422 (P16422 24-314 limits assumed): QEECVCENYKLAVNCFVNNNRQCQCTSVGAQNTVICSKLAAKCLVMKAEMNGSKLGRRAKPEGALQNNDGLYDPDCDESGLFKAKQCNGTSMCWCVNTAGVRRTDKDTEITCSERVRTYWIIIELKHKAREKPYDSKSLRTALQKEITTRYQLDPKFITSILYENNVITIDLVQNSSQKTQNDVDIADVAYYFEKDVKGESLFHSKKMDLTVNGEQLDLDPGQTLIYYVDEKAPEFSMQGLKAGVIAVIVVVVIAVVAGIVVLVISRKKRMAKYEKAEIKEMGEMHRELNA

B1: EpCAMscFv-HveA adapter (fused protein of scFv for EpCAM and HveA82 extracellular domain of HVEM) (protein)
chain: DIQMTQSPSSLSASVGDRVTITCRSTKSLLHSNGITYLYWYQQKPGKAPKLLIYQMSNLASGVPSRFSSSGSGTDFTLTISSLQPEDFATYYCAQNLEIPRTFGQGTKVELKRATPSHNSHQVPSAGGPTANSGTSGSEVQLVQSGPGLVQPGGSVRISCAASGYTFTNYGMNWVKQAPGKGLEWMGWINTYTGESTYADSFKGRFTFSLDTSASAAYLQINSLRAEDTAVYYCARFAIKGDYWGQGTLLTVSSGGGGSEFLPSCKEDEYPVGSECCPKCSPGYRVKEACGELTGTVCEPCPPGTYIAHLNGLSKCLQCQMCDPAMGLRASRNCSRTENAVCGHHHHHH
cell viability of BT-474 cells 5 days after infection with EADa-S virus: 34%
cell viability of MCF-7 cells 5 days after infection with EADa-S virus: 31%
cell viability of MDA-MB-453 cells 5 days after infection with EADa-S virus: 19%
